The values below come from US7067277B1, “Chimeric G proteins and uses thereof” (H. Lundbeck A/S, priority 1999, dated 2006).

The experiment has as its target T1, h D1 (Homo sapiens, UniProt P21728).
T1 construct: expressed in transfected cells; host or cells: COS-7
The experiment is described as follows: Calcium mobilization (FLIPR, Fluo-3) in transfected COS-7 cells. The settings on record: human D1 receptors in COS-7; 10 μg chimera cDNA and 10 μg receptor cDNA; 100 μM dopamine; Table 9 parallel comparison, mean of two experiments. Type of experiment: cell-based. As to the method: COS-7 cells were cultured in 225 cm^2 flasks in Dulbecco's Modified Eagle Medium (DMEM) with supplements (10% bovine calf serum, 4 mM glutamine, 100 units/ml penicillin and 100 μg/ml streptomycin) at 37° C., 5% CO2. Stock plates of COS-7 cells were trypsinized and split 1:6 every 3–4 days.
For evaluating the function of a single chimeric G protein, the standard cDNA transfection ratio was 1:1 (10 μg GPCR cDNA and 10 μg chimeric G protein cDNA). For evaluating the function of a mixture of chimeric G proteins, the standard cDNA transfection ratio was 8:1:1 (16 μg GPCR cDNA, 2 μg Gαq/z cDNA, 2 μg Gαq/s cDNA).
Twenty four hours after transient transfection, COS-7 cells were seeded into 96-well black wall microtiter plates coated with poly-D-lysine for assay the following day. […] After excess dye was discarded, cells were washed in assay buffer and layered with a final volume equal to 100 μl/well. Basal fluorescence was monitored in a fluorometric imaging plate reader (FLIPR™, Molecular Devices) with an excitation wavelength of 488 nm and an emission range of 500 to 560 nm. Laser excitation energy was adjusted so that basal fluorescence readings were approximately 10,000 relative fluorescent units. Cells were stimulated with agonists diluted in assay buffer (50 μl), and relative fluorescent units were measured at defined intervals (exposure=0.4 sec) over a 3 min period at room temperature. Maximum change in fluorescence was calculated for each well. Concentration-response curves derived from the maximum change in fluorescence were analyzed by nonlinear regression (Hill equation).
(In general: Calcium flux is commonly read through the fluorescence of an indicator in the cells.)

T1 sequence (P21728 whole entry): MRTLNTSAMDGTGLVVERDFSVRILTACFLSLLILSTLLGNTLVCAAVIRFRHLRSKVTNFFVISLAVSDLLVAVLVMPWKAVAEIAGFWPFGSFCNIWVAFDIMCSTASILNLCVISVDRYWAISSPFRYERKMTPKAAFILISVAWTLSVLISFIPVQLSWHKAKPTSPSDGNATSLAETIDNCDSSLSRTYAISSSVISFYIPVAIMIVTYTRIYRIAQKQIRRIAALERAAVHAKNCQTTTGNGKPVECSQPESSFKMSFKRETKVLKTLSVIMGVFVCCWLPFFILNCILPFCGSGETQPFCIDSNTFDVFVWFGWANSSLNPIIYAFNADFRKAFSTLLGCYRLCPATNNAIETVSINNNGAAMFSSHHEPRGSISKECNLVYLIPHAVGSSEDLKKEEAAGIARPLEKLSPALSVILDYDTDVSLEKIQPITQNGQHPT

B1: dGαq/z5: D. melanogaster Gαq chimera containing the five C-terminal amino acids of human Gαz (SEQ ID NO: 41) (protein)
chain: MECCLSEEAKEQKRINQEIEKQLRRDKRDARRELKLLLLGTGESGKSTFIKQMRIIHGSGYSDEDKRGYIKLVFQNIFMAMQSMIKAMDMLKISYGQGEHSELADLVMSIDYETVTTFEDPYLNAIKTLWDDAGIQECYDRRREYQLTDSAKYYLKDLDRVAQPAYLPTEQDILRVRVPTTGIIEYPFDLEEIRFRMVDVGGQRSERRKWIHCFENVTSIIFLVALSEYDQILFESDNENRMEESKALFRTIITYPWFQNSSVILFLNKKDLLEEKIMYSHLVDYFPEYDGPQRDAITAREFILRMFVDLNPDSEKIIYSHFTCATDTENIRFVFAAVKDTILQSNLKYIGLC
modifications: Drosophila melanogaster
On to B1, for which the “MAXIMAL SIGNAL (FLUORESCENCE UNITS)” value was determined as 2149 fluorescence units.
